The results in this text go back to patent US20090143308A1.

Holding throughout (assay): cell-based or functional assay
For assay [1], the target named is Candida albicans Cdr1p as expressed in S. cerevisiae AD1002 (CDR1 of plasmid pKEN1002) (Candida albicans) (UniProt P43071).
Assay [2] addresses S. cerevisiae plasma membrane H+-ATPase (Pma1p) (Saccharomyces cerevisiae) (UniProt P05030).
In assay [3] the target is Saccharomyces cerevisiae Pdr5p (over-expressed in strain AD124567) (Saccharomyces cerevisiae) (UniProt P33302).
Saccharomyces cerevisiae Pdr5p (over-expressed in strain AD124567) (Saccharomyces cerevisiae), sequence (P33302 whole entry): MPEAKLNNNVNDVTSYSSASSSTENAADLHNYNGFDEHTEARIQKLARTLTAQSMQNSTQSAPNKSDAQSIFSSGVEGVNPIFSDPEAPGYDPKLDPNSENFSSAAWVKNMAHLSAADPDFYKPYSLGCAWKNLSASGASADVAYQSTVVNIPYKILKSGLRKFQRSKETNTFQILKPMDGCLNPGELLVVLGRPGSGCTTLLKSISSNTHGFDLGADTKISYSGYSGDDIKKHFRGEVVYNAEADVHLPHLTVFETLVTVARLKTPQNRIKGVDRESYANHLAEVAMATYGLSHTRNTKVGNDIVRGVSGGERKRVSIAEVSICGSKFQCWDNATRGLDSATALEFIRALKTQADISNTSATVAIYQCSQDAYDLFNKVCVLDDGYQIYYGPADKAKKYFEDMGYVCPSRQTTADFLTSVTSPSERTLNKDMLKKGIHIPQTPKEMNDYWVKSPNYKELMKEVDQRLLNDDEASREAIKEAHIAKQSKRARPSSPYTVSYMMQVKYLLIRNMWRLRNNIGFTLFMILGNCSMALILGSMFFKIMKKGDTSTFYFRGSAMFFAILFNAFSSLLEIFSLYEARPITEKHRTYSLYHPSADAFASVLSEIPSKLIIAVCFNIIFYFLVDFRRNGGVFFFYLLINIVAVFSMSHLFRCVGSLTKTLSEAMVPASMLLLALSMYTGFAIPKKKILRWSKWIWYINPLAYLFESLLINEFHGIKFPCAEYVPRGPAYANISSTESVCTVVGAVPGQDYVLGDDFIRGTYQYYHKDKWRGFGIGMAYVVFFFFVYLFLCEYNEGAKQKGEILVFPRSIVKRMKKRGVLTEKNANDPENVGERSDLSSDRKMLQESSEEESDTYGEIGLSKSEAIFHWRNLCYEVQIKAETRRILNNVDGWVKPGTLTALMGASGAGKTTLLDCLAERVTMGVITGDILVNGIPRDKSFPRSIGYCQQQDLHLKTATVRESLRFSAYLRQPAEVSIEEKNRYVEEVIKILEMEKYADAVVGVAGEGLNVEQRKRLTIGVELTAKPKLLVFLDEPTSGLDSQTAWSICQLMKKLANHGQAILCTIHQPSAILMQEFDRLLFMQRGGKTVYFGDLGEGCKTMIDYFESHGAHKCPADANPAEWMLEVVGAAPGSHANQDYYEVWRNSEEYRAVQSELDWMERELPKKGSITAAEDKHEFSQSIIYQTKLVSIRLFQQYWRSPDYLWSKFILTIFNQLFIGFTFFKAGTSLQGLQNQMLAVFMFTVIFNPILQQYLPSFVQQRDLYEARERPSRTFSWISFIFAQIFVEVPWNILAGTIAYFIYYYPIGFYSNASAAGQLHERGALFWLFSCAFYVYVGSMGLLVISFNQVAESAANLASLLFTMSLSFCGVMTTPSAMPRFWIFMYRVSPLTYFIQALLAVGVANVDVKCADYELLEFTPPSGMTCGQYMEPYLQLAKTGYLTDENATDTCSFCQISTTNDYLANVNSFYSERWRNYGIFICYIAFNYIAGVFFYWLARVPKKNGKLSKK

Candida albicans Cdr1p as expressed in S. cerevisiae AD1002 (CDR1 of plasmid pKEN1002) (Candida albicans), sequence (P43071 whole entry): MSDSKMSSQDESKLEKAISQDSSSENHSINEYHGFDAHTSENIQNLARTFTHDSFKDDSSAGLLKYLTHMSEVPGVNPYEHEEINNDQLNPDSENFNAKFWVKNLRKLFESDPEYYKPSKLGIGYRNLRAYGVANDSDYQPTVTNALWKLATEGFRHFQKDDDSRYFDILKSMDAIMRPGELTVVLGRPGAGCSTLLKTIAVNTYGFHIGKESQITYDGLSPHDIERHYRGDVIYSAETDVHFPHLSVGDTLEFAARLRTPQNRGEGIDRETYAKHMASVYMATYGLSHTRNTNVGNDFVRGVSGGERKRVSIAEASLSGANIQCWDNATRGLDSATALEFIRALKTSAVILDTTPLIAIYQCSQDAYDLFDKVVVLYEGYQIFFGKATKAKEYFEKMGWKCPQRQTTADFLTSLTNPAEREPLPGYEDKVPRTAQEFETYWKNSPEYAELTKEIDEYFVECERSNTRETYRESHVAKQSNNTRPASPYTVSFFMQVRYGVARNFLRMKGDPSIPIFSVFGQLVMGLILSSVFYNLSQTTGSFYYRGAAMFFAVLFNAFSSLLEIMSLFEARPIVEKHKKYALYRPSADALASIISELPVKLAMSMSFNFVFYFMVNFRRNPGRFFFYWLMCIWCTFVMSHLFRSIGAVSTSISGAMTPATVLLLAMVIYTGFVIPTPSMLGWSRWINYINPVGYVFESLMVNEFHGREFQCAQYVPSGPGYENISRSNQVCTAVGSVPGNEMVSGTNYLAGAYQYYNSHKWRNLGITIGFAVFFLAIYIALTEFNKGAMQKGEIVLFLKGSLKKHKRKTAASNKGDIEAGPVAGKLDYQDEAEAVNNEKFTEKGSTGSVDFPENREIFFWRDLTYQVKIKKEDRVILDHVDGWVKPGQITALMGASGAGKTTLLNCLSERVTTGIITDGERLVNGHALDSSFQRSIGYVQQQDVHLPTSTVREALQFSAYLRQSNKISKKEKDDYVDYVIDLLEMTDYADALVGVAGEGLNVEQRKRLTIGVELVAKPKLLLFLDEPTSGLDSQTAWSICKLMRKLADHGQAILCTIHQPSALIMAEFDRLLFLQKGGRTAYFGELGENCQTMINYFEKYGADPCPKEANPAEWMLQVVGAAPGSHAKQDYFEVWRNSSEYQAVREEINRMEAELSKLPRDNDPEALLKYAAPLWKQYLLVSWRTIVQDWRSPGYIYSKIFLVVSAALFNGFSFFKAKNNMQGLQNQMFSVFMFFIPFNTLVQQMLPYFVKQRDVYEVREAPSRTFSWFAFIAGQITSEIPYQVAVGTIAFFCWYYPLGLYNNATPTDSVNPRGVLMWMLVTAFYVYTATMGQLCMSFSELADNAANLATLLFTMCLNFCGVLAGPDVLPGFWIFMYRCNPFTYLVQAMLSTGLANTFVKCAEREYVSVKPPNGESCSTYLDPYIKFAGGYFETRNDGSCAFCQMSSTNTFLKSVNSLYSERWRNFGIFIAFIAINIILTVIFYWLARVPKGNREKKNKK
S. cerevisiae plasma membrane H+-ATPase (Pma1p) (Saccharomyces cerevisiae), sequence (P05030 whole entry): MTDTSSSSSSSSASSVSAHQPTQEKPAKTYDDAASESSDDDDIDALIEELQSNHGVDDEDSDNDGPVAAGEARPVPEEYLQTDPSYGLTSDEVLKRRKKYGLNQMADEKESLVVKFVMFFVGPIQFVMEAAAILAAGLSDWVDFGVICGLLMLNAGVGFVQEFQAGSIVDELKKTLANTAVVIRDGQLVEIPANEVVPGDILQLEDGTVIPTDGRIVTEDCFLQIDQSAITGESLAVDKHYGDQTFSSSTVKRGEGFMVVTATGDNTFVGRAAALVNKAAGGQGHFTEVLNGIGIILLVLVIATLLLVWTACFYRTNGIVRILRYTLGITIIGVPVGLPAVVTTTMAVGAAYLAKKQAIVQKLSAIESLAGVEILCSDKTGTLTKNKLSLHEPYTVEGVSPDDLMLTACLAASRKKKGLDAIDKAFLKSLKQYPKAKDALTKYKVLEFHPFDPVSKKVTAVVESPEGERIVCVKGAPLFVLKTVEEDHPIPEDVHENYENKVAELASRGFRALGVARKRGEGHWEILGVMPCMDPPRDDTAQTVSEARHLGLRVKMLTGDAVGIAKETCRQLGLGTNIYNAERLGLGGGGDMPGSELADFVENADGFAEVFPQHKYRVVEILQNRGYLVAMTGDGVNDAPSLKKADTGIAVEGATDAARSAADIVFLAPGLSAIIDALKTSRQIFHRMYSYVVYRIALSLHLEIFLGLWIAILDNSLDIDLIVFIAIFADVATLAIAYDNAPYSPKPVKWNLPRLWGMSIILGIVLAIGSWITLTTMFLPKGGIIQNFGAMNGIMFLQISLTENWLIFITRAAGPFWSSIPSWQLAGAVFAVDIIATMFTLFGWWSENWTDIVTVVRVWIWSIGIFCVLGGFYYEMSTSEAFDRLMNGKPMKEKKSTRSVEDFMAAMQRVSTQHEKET

Consider “KN20 (D-NH2-asparagine-tryptophan-tryptophan-lysine-valine-arginine-arginine-arginine-CONH2 with a single Mtr substituent) (peptide)”, for which, in assay [1], the fold higher inhibitory concentration for Cdr1p ATPase than for Pdr5p ATPase stood at 2.7 fold and the inhibition of oligomycin sensitive ATPase activity of AD1002 plasma membranes (I50) worked out at 8 µM. The inhibition of S. cerevisiae plasma membrane H+-ATPase (I50) in assay [2] is 10 µM. In assay [3], this substance registered an inhibition of oligomycin sensitive ATPase activity of plasma membranes from the AD124567 yeast strain overexpressing Pdr5p (I50) of 3 µM.
